Test results taken from the nanobody polyreactivity screen of Harvey et al. (2022).

assay: yeast display, Sf9 membrane polyspecificity reagent, FACS + sequencing; frameworks hold sequencing errors
Summary of the method: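 Polyreactivity labels are assigned by the sorting gate from which each nanobody was recovered. The gates were low and high (top ~1%), set on anti-HA fluorescence for expression and streptavidin fluorescence for reagent binding. Before sorting, galactose-induced (36–48 hours) yeast display cells were stained for 1 hour at 4 °C with 10% biotinylated, detergent-solubilized Sf9 membrane reagent.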

Row | Sequence | polyreactivity (PSR sort gate)
1 | QVQLVESGGGLVQAGGSLRLSCAASGITLARNAMGWYRQAPGKERELVASITWSGGTTYYADSVKGRFTISRDNAKNTVYLQMNSLKPEDTAVYYCAASAKLHFYRTYRYNYWGQGTQVTVSS | high polyreactivity
2 | QVQLVESGGGLVQAGGSLRLSCAASGITLAYNVMGWYRQAPGKERELVAGITRSGGSTYYADSVKGRFTISRDNAKNTVYLQMNSLKPEDTAVYYCAAGFTYLNYTPWYRFNYWGQGTQVTVSS | high polyreactivity
3 | QVQLVESGGGLVQAGGSLRLSCAASGITLDNYVMGWYRQAPGKERELVAAISRTSGRTYYADSVKGRFTISRDNAKNTVYLQMNSLKPEDTAVYYCAAETGYTIRYDYWGQGTQVTVSS | high polyreactivity
4 | QVQLVESGGGLVQAGGSLRLSCAASGITLGTNAMGWYRQAPGKERELVAAIRRSGGSTYYADSVKGRFTISRDNAKNTVYLQMNSLKPEDTAVYYCAAVVSVNMYWGQGTQVTVSS | low polyreactivity
5 | QVQLVESGGGLVQAGGSLRLSCAASGITLGTYAMGWSRQAPGKERELVAGISTSGGSTYYADSVKGPFTISRDNAKNTVYLQMNSLKPEETAVYYCAKRRYGSGYYRYRGYDYWGQGTQVTVSS | high polyreactivity
6 | QVQLVESGGGLVQAGGSLRLSCAASGITLGYYVMGWYRQAPGKERELVAAISSSGGRTYYADSVKGRFTISRDTAKNTVYLQMNSLKPEDTAVYYCAADLGRGIYDYWGQGTQVTVSS | low polyreactivity
7 | QVQLVESGGGLVQAGGSLRLSCAASGITLTNNAMGWSRHAPGKERELVAAITRSGGSTYYADSVKGRFTISRDNAKNTVYLLMNSLKPEVTAVYCAARWYSYSGSIRSYDYWGQGTQVTVSS | low polyreactivity
8 | QVQLVESGGGLVQAGGSLRLSCAASGITLVYYVMGWYRQAPGKERELVAAISSGGITYYADSVKGRFTISRDNAKNTVYLQMNSLKPEDTAVYYCAAESRQYVRTYGYWGQGTQVTVSS | low polyreactivity
9 | QVQLVESGGGLVQAGGSLRLSCAASGITLYDNAMGWYRQEPGKERELVAAINVNDVSTYYADSVKGRFTISRDNAKNTVYLQMNSLKPEDTAVYYCAADSLYYGIGYWVVRYDYWGQGTQVTVSS | low polyreactivity
10 | QVQLVESGGGLVQAGGSLRLSCAASGITLYGYTMGWYRQAPGKERELVAGISRGGSTYYADSVKGRFTISRYNEKNTVFLQLNSLKPEDSEVYYCAAAGWYRGDYWGQGTQVTVSS | high polyreactivity
11 | QVQLVESGGGLVQAGGSLRLSCAASGITSRRYAMGWYRKAPGKEREFVAAIRTICGSTYYADSVKGRFTISRDNAKNTVYLQMNSLKPEDTAVYYCAARYFLSRSGASHLDSWGQGTQVTVSS | high polyreactivity
12 | QVQLVESGGGLVQAGGSLRLSCAASGITSWYYAMGWYRQAPGKERELVAAITSDGRTNYADSVKGRFTISRDNAKNTVYLQMNSLKPEDTAVYYCAAARRVGVSHYRYGYWGQGTQVTVSS | high polyreactivity
13 | QVQLVESGGGLVQAGGSLRLSCAASGITVGDYAMGWYRQAPGKEREVVAAISYTGGSTYYADSVKGRFTISRDNAQNTGYLQMNSLKPEDTAVYYCAADGYRDYDSWGQGTQVTVSS | high polyreactivity
14 | QVQLVESGGGLVQAGGSLRLSCAASGITVYLYAMGWYRQAPGKERELVAAISSSGGSTYYADSVKGRFTISRDNAKNTVYLQMNSLKPEDTAVYYCAAVYYTSVTIYDYWGQGTQVTVSS | high polyreactivity
15 | QVQLVESGGGLVQAGGSLRLSCAASGITYCANTMGWYRQAPGKERELVADITVTGDGTYYADSVKGRFTISRDNAKNTVYLQMNSLKPEDTAVYYCAADFWLVSFQWDFEYDYWGQGTQVTVSS | low polyreactivity
16 | QVQLVESGGGLVQAGGSLRLSCAASGITYPGYAMGWYRQAPGKERELVAVIRKSGTSTYYADSVKGRFTISRDNAKNTVYLQMNSLKPEDTAVYYCAAGGPSTLDDYWGQGTQVTVSS | low polyreactivity
17 | QVQLVESGGGLVQAGGSLRLSCAASGITYSGNAMRWYRQAPAKERELVAAISGRGGSTYYADSVKGRFTISRDNAKNTVYLLMNSLKPDDTAVYYCNADVYPYKLALPAGMGYWGQGTQVTVSS | high polyreactivity
18 | QVQLVESGGGLVQAGGSLRLSCAASGLIFADYTMGWYRQAPGKERELVAVITDGDSTYYADSVKGRFTISLDNAKNTVYLQMNTLKPEDTAVSYCAAESAGSFLDYYWAYGYWGQGTQVTVSS | low polyreactivity
19 | QVQLVESGGGLVQAGGSLRLSCAASGLIFAGYAKGWYRQAPGKERELVAAISTSGGRTYYADSVKGRFTISRDNAKNTVYLQMNSLKPEDTAVYYCAAYPVHGKTQELAKEDYWGQGTQVTVSS | high polyreactivity
20 | QVQLVESGGGLVQAGGSLRLSCAASGLIFAKYAMGWYRQAPGKERELVAAITSSGAGTYYADSVKGRFTISRDNAKNTVYLQMNCLKPEDTAVYYCATGPDPKYDYWGQGTQVTVSS | high polyreactivity
21 | QVQLVESGGGLVQAGGSLRLSCAASGLIFAKYAMGWYRQAPGKERELVAGITSGGGTYYADSVKGRFTISRDNAKNTVYLQMNSLKPEDTAVYYCAVGREYFRWIRYDYDYWGQGTQVTVSS | low polyreactivity
22 | QVQLVESGGGLVQAGGSLRLSCAASGLIFANNTMGWYRQAPGKERELVAAISATGDGNTYYADSVKGRFTISRDNAKNTVYLQMNSLKPEDTAVYYCNRLPQYALPYRHNGYWGQGTQVTVSS | low polyreactivity

Row | Sequence | polyreactivity (PSR sort gate)
23 | QVQLVESGGGLVQAGGSLRLSCAASGLIFARNVMGWYRQAPGKERELVAAISWSSGSTYYADSVKGRFTISRDNAKNTVSLQMNTLKQEDTAVYYCAARKIKSSQYFPTLYYYWGQGTQVTVSS | high polyreactivity
24 | QVQLVESGGGLVQAGGSLRLSCAASGLIFASYAMGWYRQAPGKERELVATITVGGSTYYADSVKGRFTISRDNPKNTVYLQMISLKPEDTAVYYCNVGESVPWYEWGALWFSFDYWGQGTQVSVSS | high polyreactivity
25 | QVQLVESGGGLVQAGGSLRLSCAASGLIFATYAMGWSRQAPGKERELVAAISYRGSRTYYADSVKGRFTISRDNAMTTVYLQMNILKPEDTGVYYCAAVYRTYGIGPNNYWGQGTQVTVSS | high polyreactivity
26 | QVQLVESGGGLVQAGGSLRLSCAASGLIFDKYAMGWYRQAPGKERELVAAITRSSGTTYYADSVKGRFTISRDNAKNTVYLQLNSLKPEDTAVYYCAARFIWGYWGVGYYYWGLGTQVTVSS | low polyreactivity
27 | QVQLVESGGGLVQAGGSLRLSCAASGLIFDRYPMGWYRQAPGKERELVAAINRSGGTTYYADSVKGRFTISRDNAKNTVYLQMNSLKPEDTAVYYCAARWQRYRSGTGDYWGQGTQVTVSS | high polyreactivity
28 | QVQLVESGGGLVQAGGSLRLSCAASGLIFDWYAMGWYRPAPGKERELVADISNSGGSTNYADSVKGRFTISRDSAFNTVYLQMNSLKPEDTEVYYCAVDYYYPTLTIGYYYWGQVTQVTVSS | low polyreactivity
29 | QVQLVESGGGLVQAGGSLRLSCAASGLIFEGYAMGWYRQAPGKERELVAAISSAGSTYYADSVKGRFTISRDNAKNTVYLQMNSLKPEDTAVYYCNARRRRLVSYYYWGQGTQVTVSS | high polyreactivity
30 | QVQLVESGGGLVQAGGSLRLSCAASGLIFENNAMGWYRQAPGKERELVAAITKGGGSTYYADSVKGRFTISRDNAMNTVYLQMNSLKPEDTAVYYCAKVHPWHRYWQYWYDYWGQGTQVTVSS | low polyreactivity
31 | QVQLVESGGGLVQAGGSLRLSCAASGLIFFYYAMGWYRQAPGKERELVATINLNGGSTYYADSVKGRFTISRDNAKNSVYLQMNSLKPEDTAGYYCAAAGTKYYARYYYWGQGTQVTVSS | high polyreactivity
32 | QVQLVESGGGLVQAGGSLRLSCAASGLIFGFYTMGWYRQAPGKERELVAVISSSGGSTYYADSVKGRFTISRDNAKNTVYLQMNSLKPEDTAVYYCAARAYPVRYRRRDYWGQGTQVTVSS | high polyreactivity
33 | QVQLVESGGGLVQAGGSLRLSCAASGLIFGGNAMGWYRQAPGKERELVAAISRTGGRTYYADSVKGRFTISRDNAKNTVFLQMNSLKPEDTAVYYCNAATSYYTYTYGYWGQGTQVTVSS | high polyreactivity
34 | QVQLVESGGGLVQAGGSLRLSCAASGLIFGRYAMGWYRQAPGKERELVAAISSSGVRTYYADSVKGRFTISRDNAKNTVYLQMNSLKPEDTAVSYCAAAYWSSREDTVIKSYYWGQGTQVTVSS | high polyreactivity
35 | QVQLVESGGGLVQAGGSLRLSCAASGLIFGRYAMGWYRQAPGKERELVAAISSSGVRTYYADSVKGRFTISRDNAKNTVYLQMNSLKPEDTAVYYCAAAYWSSREDTVIKRYYWGQGTQVTVSS | high polyreactivity
36 | QVQLVESGGGLVQAGGSLRLSCAASGLIFGTYAMGWYRQAPGKERELVATINSSGGSTYYADSVKGRFTISRDNAKNTVYLQMNSLKPEDTAVYYCNTRRYDAYYDYDYWGQGTQVTVSS | low polyreactivity
37 | QVQLVESGGGLVQAGGSLRLSCAASGLIFGVNAMGWYRQAPGKERELVAAISWSGSSTNYADSVKGRFTISRDNAKNTVYLQMNSLKPEDTAVYYCATDQGYRYLKIYVYGDAFDYWGQGTQVTVSS | low polyreactivity
38 | QVQLVESGGGLVQAGGSLRLSCAASGLIFGVNDMGWYRQAPGKERELVAAITSRGGSTYYADSVKGRFTISRDNAKNTVYLQMNSLKPEDTAVYYCAAKYAYYEPYSWRPQRTYNYWGQGTQVTVSS | high polyreactivity
39 | QVQLVESGGGLVQAGGSLRLSCAASGLIFGWNAMGWYRQAPGKERELVAAISSGGSTNYADSVKGRFTISRDNAKNTVYLQMNRLKPEDNAVYYCATRNGYSGTYGYWGQGTQVTVSS | low polyreactivity
40 | QVQLVESGGGLVQAGGSLRLSCAASGLIFHQYAMGWYRQAPGKERELVAAITRSGTRTYYADSVKGRFTISRDNAKNTVYLQMNSLKPEDTAVYYCNKALRTYPLFYYWGQGTQVTVSS | high polyreactivity
41 | QVQLVESGGGLVQAGGSLRLSCAASGLIFIHNTMRWYRQAPGKERELVAAISWSGASTYYADSVKGRFTISRDNAKNTVYLQMNSLKPEDTAVYYCNAGYRYSIYDYWGQGTQVTVSS | low polyreactivity
42 | QVQLVESGGGLVQAGGSLRLSCAASGLIFISYAMGWYRQAPGKERELVAAITRSAGTTYYADSVKGRFTISRDNAKNTVYLQMNSLKPEDTAVYYCNALYPITPEDYWGQGTQVTVSS | low polyreactivity
43 | QVQLVESGGGLVQAGGSLRLSCAASGLIFKRYGMGWYRQAPGKERELVAAISRSGGNTYYADSVKGRFTISRDNAKNTVYLQMNSLKPEDTAVYYCAATATYTYSDVDYWGQGTQVTVSS | high polyreactivity
